The target of assay [1] is PD-1 (antigen of the ELISA and of the in vitro affinity measurement) (UniProt Q15116 25-167, limits assumed). Description: kinetic binding table: TC3 captured as ligand (capture level 78.1 RU), hPD1-his as sample; method not given.
The target of assay [2] is T1, PD-1 shown on cells (Raji-PD-1 cells); CD3/CD28 activated human CD8+ T cells; PD-1 effector cells of the … (human, UniProt Q15116 25-288).
T1 construct: whole, on cells; Human is stated for the PBMCs; also called hPD-1; PD1 expressing Raji cells
T1 sequence (Q15116 25-288): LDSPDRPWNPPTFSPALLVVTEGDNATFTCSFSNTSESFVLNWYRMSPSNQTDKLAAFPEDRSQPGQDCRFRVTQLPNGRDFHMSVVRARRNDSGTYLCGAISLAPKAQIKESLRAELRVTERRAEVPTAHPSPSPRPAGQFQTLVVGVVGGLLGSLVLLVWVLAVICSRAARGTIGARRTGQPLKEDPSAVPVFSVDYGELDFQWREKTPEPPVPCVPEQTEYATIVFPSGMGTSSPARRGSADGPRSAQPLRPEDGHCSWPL
In words: flow cytometry on CD3+CD8+ T cells within CD3/CD28 activated human PBMCs, 1 h at 4 C, anti-human IgG PE, % anti-hIgG+; table CD8+ T cells under the graph. The procedure:
Mixed donor lots of human peripheral blood mononuclear cells (PBMCs) were thawed and seeded in medium (RPMI1640, 10% fetal bovine serum (FBS), 2 mM 1-Glutamine, 50 U/mL penicillin, 50 μg/mL streptomycin, 1 μM each of non-essential amino acids, 10 mM HEPES, 1 mM sodium pyruvate, 55 μM B-mercaptoethanol, 10 μg/mL gentamycin) into tissue culture treated plates that were coated for 1 h at 37° C. with 1 μg/ml anti-CD3. Anti-CD28 was added in solution at a concentration of 5 μg/ml. Two days later the PBMCs were collected and transferred into a 96 well v-bottom plate at 100,000 cells per well in FACS Buffer (2% FBS in phosphate buffered saline (PBS)). Test articles were diluted to twice the indicated concentration in FACS buffer. Test articles were added to cells at a 1:1 ratio to the final concentration indicated in the figure and incubated for 1 h at 4° C. The cells were washed three times with FACS buffer and fixed in 4% PFA. Cells were then washed once in FACS buffer. All cells were stained in 100 μL of indicated molecules in FACS buffer for 1 h at 4° C. The cells were washed three times with FACS buffer and fixed in 4% paraformaldehyde (PFA). All cells were subsequently stained in 100 μL with anti-human IgG PE, anti-CD3 PE/Dazzle 594, anti-CD45 PerCP Cy5.5, anti-CD8 BV510, and anti-CD4 BV421 for 30 minutes. Cells were washed twice to remove unbound antibody and analyzed on the BD Celesta by gating on CD3+CD8+ T cells.
A general note: A flow cytometer gives signals particle by particle.

Sequence of PD-1 (antigen of the ELISA and of the in vitro affinity measurement) (Q15116 25-167 limits assumed): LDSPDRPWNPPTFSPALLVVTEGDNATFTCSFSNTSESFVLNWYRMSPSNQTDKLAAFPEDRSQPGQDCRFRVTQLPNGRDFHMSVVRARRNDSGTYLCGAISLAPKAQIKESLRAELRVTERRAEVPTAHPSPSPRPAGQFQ

B1: TC3 (Fc fusion)
heavy 1: QVQLVQSGVEVKKPGASVKVSCKASGYTFTNYYMYWVRQAPGQGLEWMGGINPSNGGTNFNEKFKNRVTLTTDSSTTTAYMELKSLQFDDTAVYYCARRDYRFDMGFDYWGQGTTVTVSSASTKGPSVFPLAPSSKSTSGGTAALGCLVKDYFPEPVTVSWNSGALTSGVHTFPAVLQSSGLYSLSSVVTVPSSSLGTQTYICNVNHKPSNTKVDKKVEPKSCDKTHTCPPCPAPELLGGPSVFLFPPKPKDTLMISRTPEVTCVVVDVSHEDPEVKFNWYVDGVEVHNAKTKPREEQYASTYRVVSVLTVLHQDWLNGKEYKCKVSNKALPAPIEKTISKAKGQPREPQVYTLPPCRDELTKNQVSLWCLVKGFYPSDIAVEWESNGQPENNYKTTPPVLDSDGSFFLYSKLTVDKSRWQQGNVFSCSVMHEALHNRFTQKSLSLSPGGGSSPPGGGSSGGGSGPAPTSSSTKKTQLQLEHLLLDLQMILNGINNYKNPKLTAMLTAKFAMPKKATELKHLQCLEEALKPLEEVLNLAQSKNFHLRPRDLISNINVIVLELKGSETTFMCEYADETATIVEFLNRWITFAQSIISTLT
heavy 2: QVQLVQSGVEVKKPGASVKVSCKASGYTFTNYYMYWVRQAPGQGLEWMGGINPSNGGTNFNEKFKNRVTLTTDSSTTTAYMELKSLQFDDTAVYYCARRDYRFDMGFDYWGQGTTVTVSSASTKGPSVFPLAPSSKSTSGGTAALGCLVKDYFPEPVTVSWNSGALTSGVHTFPAVLQSSGLYSLSSVVTVPSSSLGTQTYICNVNHKPSNTKVDKKVEPKSCDKTHTCPPCPAPELLGGPSVFLFPPKPKDTLMISRTPEVTCVVVDVSHEDPEVKFNWYVDGVEVHNAKTKPREEQYASTYRVVSVLTVLHQDWLNGKEYKCKVSNKALPAPIEKTISKAKGQPREPQVCTLPPSRDELTKNQVSLSCAVKGFYPSDIAVEWESNGQPENNYKTTPPVLDSDGSFFLVSKLTVDKSRWQQGNVFSCSVMHEALHNHYTQKSLSLSPGGPPSGSSPMPYDLYHPSGGGAVNGTSQFTCFYNSRANISCVWSQDGALQDTSCQVHAWPDRRRWNQTCELLPVSQASWACNLILGAPDSQKLTTVDIVTLRVLCREGVRWRVMAIQDFKPFENLRLMAPISLQVVHVETHRSNISWEISQASHYFERHLEFEARTLSPGHTWEEAPLLTLKQKQEWISLETLTPDTQYEFQVRVKPLQGEFTTWSPWSQPLAFRTKPAALGKD
light: EIVLTQSPATLSLSPGERATLSCRASKGVSTSGYSYLHWYQQKPGQAPRLLIYLASYLESGVPARFSGSGSGTDFTLTISSLEPEDFAVYYCQHSRDLPLTFGGGTKVEIKRTVAAPSVFIFPPSDEQLKSGTASVVCLLNNFYPREAKVQWKVDNALQSGNSQESVTEQDSKDSTYSLSSTLTLSKADYEKHKVYACEVTHQGLSSPVTKSFNRGEC
notes: Bivalent anti-PD-1 Fab
On to B1, for which, in assay [1], the equilibrium dissociation constant (Kd) (commonly the equilibrium constant for the complex coming apart) turned out to be 7.11 nM; the koff (as a rule, the rate constant with which the complex falls apart) turned out to be 0.00328 s⁻¹; the kon (in general, a measure of how fast the partners come together) is 461000 M⁻¹ s⁻¹. Further, in assay [2], the EC50 (in general, the concentration needed to bring the measured effect to its halfway point) came out at 0.1 nM.

B2: TC24 (Fc fusion)
heavy 1: QVQLVQSGVEVKKPGASVKVSCKASGYTFTNYYMYWVRQAPGQGLEWMGGINPSNGGTNFNEKFKNRVTLTTDSSTTTAYMELKSLQFDDTAVYYCARRDYRFDMGFDYWGQGTTVTVSSASTKGPSVFPLAPSSKSTSGGTAALGCLVKDYFPEPVTVSWNSGALTSGVHTFPAVLQSSGLYSLSSVVTVPSSSLGTQTYICNVNHKPSNTKVDKKVEPKSCDKTHTCPPCPAPELLGGPSVFLFPPKPKDTLMISRTPEVTCVVVDVSHEDPEVKFNWYVDGVEVHNAKTKPREEQYASTYRVVSVLTVLHQDWLNGKEYKCKVSNKALPAPIEKTISKAKGQPREPQVYTLPPCRDELTKNQVSLWCLVKGFYPSDIAVEWESNGQPENNYKTTPPVLDSDGSFFLYSKLTVDKSRWQQGNVFSCSVMHEALHNRFTQKSLSLSPGGGSSPPGGGSSGGGSGPAPTSSSTKKTQLQLEHLLLDLQMILNGINNYKNPKLTAMLTAKFAMPKKATELKHLQCLEEALKPLEEVLNLAQSKNFHLRPRDLISNINVIVLELKGSETTFMCEYADETATIVEFLNRWITFAQSIISTLT
heavy 2: QVQLVQSGVEVKKPGASVKVSCKASGYTFTNYYMYWVRQAPGQGLEWMGGINPSNGGTNFNEKFKNRVTLTTDSSTTTAYMELKSLQFDDTAVYYCARRDYRFDMGFDYWGQGTTVTVSSASTKGPSVFPLAPSSKSTSGGTAALGCLVKDYFPEPVTVSWNSGALTSGVHTFPAVLQSSGLYSLSSVVTVPSSSLGTQTYICNVNHKPSNTKVDKKVEPKSCDKTHTCPPCPAPELLGGPSVFLFPPKPKDTLMISRTPEVTCVVVDVSHEDPEVKFNWYVDGVEVHNAKTKPREEQYASTYRVVSVLTVLHQDWLNGKEYKCKVSNKALPAPIEKTISKAKGQPREPQVCTLPPSRDELTKNQVSLSCAVKGFYPSDIAVEWESNGQPENNYKTTPPVLDSDGSFFLVSKLTVDKSRWQQGNVFSCSVMHEALHNHYTQKSLSLSPGGGSSGPVPLSLYSGSGGGAVNGTSQFTCFYNSRANISCVWSQDGALQDTSCQVHAWPDRRRWNQTCELLPVSQASWACNLILGAPDSQKLTTVDIVTLRVLCREGVRWRVMAIQDFKPFENLRLMAPISLQVVHVETHRSNISWEISQASHYFERHLEFEARTLSPGHTWEEAPLLTLKQKQEWISLETLTPDTQYEFQVRVKPLQGEFTTWSPWSQPLAFRTKPAALGKD
light: EIVLTQSPATLSLSPGERATLSCRASKGVSTSGYSYLHWYQQKPGQAPRLLIYLASYLESGVPARFSGSGSGTDFTLTISSLEPEDFAVYYCQHSRDLPLTFGGGTKVEIKRTVAAPSVFIFPPSDEQLKSGTASVVCLLNNFYPREAKVQWKVDNALQSGNSQESVTEQDSKDSTYSLSSTLTLSKADYEKHKVYACEVTHQGLSSPVTKSFNRGEC
notes: Mask CD122 (C122S, C168S)
As to B2, the EC50 in assay [2] stood at 0.1 nM.

B3: TC47 (Fc fusion)
heavy 1: QVQLVQSGVEVKKPGASVKVSCKASGYTFTNYYMYWVRQAPGQGLEWMGGINPSNGGTNFNEKFKNRVTLTTDSSTTTAYMELKSLQFDDTAVYYCARRDYRFDMGFDYWGQGTTVTVSSASTKGPSVFPLAPSSKSTSGGTAALGCLVKDYFPEPVTVSWNSGALTSGVHTFPAVLQSSGLYSLSSVVTVPSSSLGTQTYICNVNHKPSNTKVDKKVEPKSCDKTHTCPPCPAPELLGGPSVFLFPPKPKDTLMISRTPEVTCVVVDVSHEDPEVKFNWYVDGVEVHNAKTKPREEQYASTYRVVSVLTVLHQDWLNGKEYKCKVSNKALPAPIEKTISKAKGQPREPQVYTLPPCRDELTKNQVSLWCLVKGFYPSDIAVEWESNGQPENNYKTTPPVLDSDGSFFLYSKLTVDKSRWQQGNVFSCSVMHEALHNRFTQKSLSLSPGGGSSPPGGGSSGGGSGPAPTSSSTKKTQLQLEHLLLDLQMILNGINNYKNPKLTAMLTAKFAMPKKATELKHLQCLEEALKPLEEVLNLAQSKNFHLRPRDLISNINVIVLELKGSETTFMCEYADETATIVEFLNRWITFAQSIISTLT
heavy 2: QVQLVQSGVEVKKPGASVKVSCKASGYTFTNYYMYWVRQAPGQGLEWMGGINPSNGGTNFNEKFKNRVTLTTDSSTTTAYMELKSLQFDDTAVYYCARRDYRFDMGFDYWGQGTTVTVSSASTKGPSVFPLAPSSKSTSGGTAALGCLVKDYFPEPVTVSWNSGALTSGVHTFPAVLQSSGLYSLSSVVTVPSSSLGTQTYICNVNHKPSNTKVDKKVEPKSCDKTHTCPPCPAPELLGGPSVFLFPPKPKDTLMISRTPEVTCVVVDVSHEDPEVKFNWYVDGVEVHNAKTKPREEQYASTYRVVSVLTVLHQDWLNGKEYKCKVSNKALPAPIEKTISKAKGQPREPQVCTLPPSRDELTKNQVSLSCAVKGFYPSDIAVEWESNGQPENNYKTTPPVLDSDGSFFLVSKLTVDKSRWQQGNVFSCSVMHEALHNHYTQKSLSLSPGGGSSGPVPLSLYSGSGGGAVNGTSQFTCFYNSRANISCVWSQDGALQDTSCQVHAWPDRRRWNQTCELLPVSQASWACNLILGAPDSQKLTTVDIVTLRVLCREGVRWRVMAIQDFKPFENLRLMAPISLQVVHVETHRACISWEISQASHYFERHLEFEARTLSPGHTWEEAPLLTLKQKQEWICLETLTPDTQYEFQVRVKPLQGEFTTWSPWSQPLAFRTKPAALGKD
light: EIVLTQSPATLSLSPGERATLSCRASKGVSTSGYSYLHWYQQKPGQAPRLLIYLASYLESGVPARFSGSGSGTDFTLTISSLEPEDFAVYYCQHSRDLPLTFGGGTKVEIKRTVAAPSVFIFPPSDEQLKSGTASVVCLLNNFYPREAKVQWKVDNALQSGNSQESVTEQDSKDSTYSLSSTLTLSKADYEKHKVYACEVTHQGLSSPVTKSFNRGEC
notes: Mask CD122 (C122A, N123C)
In assay [2], B3 showed an EC50 of 0.1 nM.
